Experimental findings from patent US6835806B2, “Cell growth regulation system” (Phoenix Pharmaceuticals, Inc., priority 2000, dated 2004) are described below.

This test concerns Human umbilical vein endothelial cells (HUVEC). Description: [3H]thymidine incorporation, HUVEC growth in vitro. The format is cell-based. Conditions: increasing concentrations, FIG. 6C. On the procedure: To determine if the '362 peptide or the '367 peptide affects the in-vitro growth of cells, the '362 peptide was tested in culture dishes for the ability to inhibit the growth of prostrate tumor cells or of lung tumor cells. Radioactive hydrogen (^3 H) was attached to thymidine([^3H]hymidine), which is one of the components of DNA. Cells that grow in the presence of [^3H]thymidine incorporate the radioactive thymidine into their DNA.
Human umbilical vein endothelial cells (HUVEC) were also grown in increasing concentrations of the '362 peptide or '367 peptide in the presence of radioactive thymidine. HUVEC cells are commonly used to test for angiogenic regulation because these cells respond to angiogenic inhibitors in a fashion similar to the cells in the human body that form new blood vessels. […] Research protocols designed to elucidate the reasons for this unexpected difference in response of HUVEC to endostatin protein and to '362 peptide are set out in the Research Plan, Phoenix Pharmaceuticals, Inc., 2438 Wyandotte Street, Mountain View, Calif. 94043, (1999) which is hereby incorporated by reference.
On the technique in general: Uptake of a labelled nucleoside into DNA is a usual measure of proliferation.

B1: endostatin protein: protein of about 20 kDa with a zinc-binding domain, inhibitor of endothelial cell growth (FIG. 5) (protein, UniProt P39060 1572-1754, looked up)
Endostatin: HSHRDFQPVLHLVALNSPLSGGMRGIRGADFQCFQQARAVGLAGTFRAFLSSRLQDLYSIVRRADRAAVPIVNLKDELLFPSWEALFSGSEGPLKPGARIFSFDGKDVLRHPTWPQKSVWHGSDPNGRRLTESYCETWRTEAPSATGQASSLLGGRLLGQSAASCHHAYIVLCIENSFMTASK
modifications: Endostatin
Consider B1, for which the “HUVEC growth rate (radioactive thymidine)” value is recorded as “dramatic reduction in HUVEC growth”.
